Assay results published in patent US20160039913A1 (LFB USA, published 2016).

How the values were obtained:
Assay in all cases: cell-based or functional assay
HIV-1 JR-FL gp120 [1] = biological target: T1, HIV-1 JR-FL gp120 (HIV-1, isolate JR-FL)
HIV-1 SF162 gp120 [2] = biological target: T2, HIV-1 SF162 gp120 (HIV-1, isolate SF162, UniProt P19550 32-502)
HIV-1 89.6 gp120 [3] = biological target: T3, HIV-1 89.6 gp120 (HIV-1, isolate 89.6, UniProt Q73372 32-508)
HIV-1 BaL gp120 [4] = biological target: T4, HIV-1 BaL gp120 (HIV-1, isolate BaL)
HIV-1 93MW960 gp120 [5] = biological target: T5, HIV-1 93MW960 gp120 (HIV-1, isolate 93MW960)
HIV-1 JR-FL gp120 [6] = biological target: T1, HIV-1 JR-FL gp120; remark: listed apart in the source
HIV-1 67970 gp120 = HIV-1 67970 gp120 (HIV-1, isolate 67970)
HIV-1 SF162 gp120 [7] = biological target: T2, HIV-1 SF162 gp120; design: unit not given beside the values
HIV-1 89.6 gp120 [8] = biological target: T3, HIV-1 89.6 gp120; design: unit not given beside the values
HIV-1 JR-FL gp120 [9] = biological target: T1, HIV-1 JR-FL gp120; remark: listed apart in the source
HIV-1 SF162 gp120 [10] = biological target: T2, HIV-1 SF162 gp120; remark: listed apart in the source
HIV-1 89.6 gp120 [11] = biological target: T3, HIV-1 89.6 gp120; remark: listed apart in the source
HIV-1 BaL gp120 [12] = biological target: T4, HIV-1 BaL gp120; remark: listed apart in the source
HIV-1 93MW960 gp120 [13] = biological target: T5, HIV-1 93MW960 gp120; remark: listed apart in the source

Binder	IC50, ADCVI with neutrophils, JR-FL-infected PBMC (HIV-1 JR-FL gp120 [1]) [µg/mL]	IC50, ADCVI with neutrophils, SF162-infected PBMC (HIV-1 SF162 gp120 [2]) [µg/mL]	IC50, ADCVI with neutrophils, 89.6-infected PBMC (HIV-1 89.6 gp120 [3]) [µg/mL]	IC50, ADCVI with neutrophils, BaL-infected PBMC (HIV-1 BaL gp120 [4]) [µg/mL]	IC50, ADCVI with neutrophils, 93MW960-infected PBMC (HIV-1 93MW960 gp120 [5]) [µg/mL]	IC50, neutralization of HIV-1 JR-FL (TZM-bl cells, no sCD4) (HIV-1 JR-FL gp120 [6]) [µg/mL]	IC50, neutralization of HIV-1 67970 (TZM-bl cells, no sCD4) (HIV-1 67970 gp120) [µg/mL]	IC90, neutralization of HIV SF162 (TZM-bl assay) (HIV-1 SF162 gp120 [7])	IC90, neutralization of HIV 89.6 (TZM-bl assay) (HIV-1 89.6 gp120 [8])	IC50, ADCVI assay with PMN (+ PMN), JR-FL-infected PBMC (HIV-1 JR-FL gp120 [9]) [µg/mL]	IC50, ADCVI assay without PMN (- PMN), JR-FL-infected PBMC (HIV-1 JR-FL gp120 [9]) [µg/mL]	IC50, ADCVI assay with PMN (+ PMN), SF162-infected PBMC (HIV-1 SF162 gp120 [10]) [µg/mL]	IC50, ADCVI assay without PMN (- PMN), SF162-infected PBMC (HIV-1 SF162 gp120 [10]) [µg/mL]	IC50, ADCVI assay with PMN (+ PMN), 89.6-infected PBMC (HIV-1 89.6 gp120 [11]) [µg/mL]	IC50, ADCVI assay without PMN (- PMN), 89.6-infected PBMC (HIV-1 89.6 gp120 [11]) [µg/mL]	IC50, ADCVI assay with PMN (+ PMN), BaL-infected PBMC (HIV-1 BaL gp120 [12]) [µg/mL]	IC50, ADCVI assay without PMN (- PMN), BaL-infected PBMC (HIV-1 BaL gp120 [12]) [µg/mL]	IC50, ADCVI assay with PMN (+ PMN), 93MW960-infected PBMC (HIV-1 93MW960 gp120 [13]) [µg/mL]	IC50, ADCVI assay without PMN (- PMN), 93MW960-infected PBMC (HIV-1 93MW960 gp120 [13]) [µg/mL]
F425-A1g8 IgG1 antibody variant (antibody, V domains shown) VH: QEQLVESGGGVVQPGRSLRLSCEASGFIFSAFVLHWVRQAPGKGLEWVAVVWYDGNSKYYADSVKGRFTISRDTSQNTLHLQMDSLRPEDTAVYYCAREWVADDDTFDGFDVWGQGTMVTVSS VL: EIVLSQSPATLSLSPGERATLSCRASQSVTNSLAWYQQKPGQAPRLLIYDASNRATGIPARFSGSGSGTDFTLTISSLEPEDFAVYYCQQRSNWPPEVTFGPGTKVDIKR	> 40	> 40	> 40	> 40	9.5	> 40	> 40												
F425-A1g8 IgA1 antibody variant (antibody) heavy: QEQLVESGGGVVQPGRSLRLSCEASGFIFSAFVLHWVRQAPGKGLEWVAVVWYDGNSKYYADSVKGRFTISRDTSQNTLHLQMDSLRPEDTAVYYCAREWVADDDTFDGFDVWGQGTMVTVSSASLTSPKVFPLSLCSTQPDGNVVIACLVQGFFPQEPLSVTWSESGQGVTARNFPPSQDASGDLYTTSSQLTLPATQCLAGKSVTCHVKHYTNPSQDVTVPCPVPSTPPTPSPSTPPTPSPSCCHPRLSLHRPALEDLLLGSEANLTCTLTGLRDASGVTFTWTPSSGKSAVQGPPDRDLCGCYSVSSVLSGCAEPWNHGKTFTCTAAYPESKTPLTATLSKSGNTFRPEVHLLPPPSEELALNELVTLTCLARGFSPKDVLVRWLQGSQELPREKYLTWASRQEPSQGTTTFAVTSILRVAAEDWKKGDTFSCMVGHEALPLAFTQKTIDRLAGKPTHVNVSVVMAEVDGTCY light: not shown	16.6	6.1	> 40	> 40	18.3	1.73	23.3												
b12 IgA2 purified from CHO cells (antibody, V domains shown) VH: QVQLVQSGAEVKKPGASVKVSCQASGYRFSNFVIHWVRQAPGQRFEWMGWINPYNGNKEFSAKFQDRVTFTADTSANTAYMELRSLRSADTAVYYCARVGPYSWDDSPQDNYYMDVWGQGTTVIVSS VL: EIVLTQAPGTLSLSPGERATFSCRSSHSIRSRRVAWYQHKPGQAPRLVIHGVSNRASGISDRFSGSGSGTDFTLTITRVEPEDFALYYCQVYGASSYTFGQGTKLERKR								1.03	6.75	> 20	> 20	0.3	9.5	14.5	> 20	2.1	> 20	10	> 20
b12 IgA2 purified from milk (antibody, V domains shown) VH: QVQLVQSGAEVKKPGASVKVSCQASGYRFSNFVIHWVRQAPGQRFEWMGWINPYNGNKEFSAKFQDRVTFTADTSANTAYMELRSLRSADTAVYYCARVGPYSWDDSPQDNYYMDVWGQGTTVIVSS VL: EIVLTQAPGTLSLSPGERATFSCRSSHSIRSRRVAWYQHKPGQAPRLVIHGVSNRASGISDRFSGSGSGTDFTLTITRVEPEDFALYYCQVYGASSYTFGQGTKLERKR								0.79	8.37	> 20	> 20	0.3	2.1	17.1	> 20	2.2	13.1	17.5	> 20
b12 IgA2 expressed in milk (antibody, V domains shown) VH: QVQLVQSGAEVKKPGASVKVSCQASGYRFSNFVIHWVRQAPGQRFEWMGWINPYNGNKEFSAKFQDRVTFTADTSANTAYMELRSLRSADTAVYYCARVGPYSWDDSPQDNYYMDVWGQGTTVIVSS VL: EIVLTQAPGTLSLSPGERATFSCRSSHSIRSRRVAWYQHKPGQAPRLVIHGVSNRASGISDRFSGSGSGTDFTLTITRVEPEDFALYYCQVYGASSYTFGQGTKLERKR								0.34	1.85		9.6	0.4	6.6	3.9	4.8	2.3	19.3	3.3	> 20
